Publication PMC12249877, “AlphaFold 3-Assisted Deciphering of the DNA Recognition by DREB1 Transcription Factors in Rice”

Assays:
OsDREB1A-DBD V64A = OsDREB1A-DBD V64A (Oryza sativa (rice), UniProt Q64MA1 32-103, V64A); assay: EMSA; 0.6 uM protein; EMSA: 0.01 uM FAM-dsDNA, 50 mM NaH2PO4, 150 mM NaCl, 5 mM DTT, 2% glycerol, pH 6.8, 15 min, room temperature; 12% native PAGE in 0.5x TBE; settings: protein: recombinant; tags: C-terminal His-tag (pET28); blunt
OsDREB1A-DBD F43G = OsDREB1A-DBD F43G (Oryza sativa (rice), UniProt Q64MA1 32-103, F43G); assay: as above; settings: protein: recombinant; tags: C-terminal His-tag (pET28); blunt
OsDREB1A-DBD F43G, sequence (Q64MA1 32-103 F43G): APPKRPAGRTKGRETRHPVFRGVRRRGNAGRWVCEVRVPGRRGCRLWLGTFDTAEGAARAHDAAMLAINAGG

OsDREB1A-DBD V64A, sequence (Q64MA1 32-103 V64A): as the sequence (Q64MA1 32-103 F43G) above, with G12F, V33A counted along it

B1: CRT (dsDNA)
DNA 1: GTACGCCGACACT
DNA 2: AGTGTCGGCGTAC
binding result (OsDREB1A-DBD V64A): binds | binding result (OsDREB1A-DBD F43G): binds
